From doi:10.1101/2024.09.19.614007 (bioRxiv, 2024)

Molecular target: the molecule itself
Assay: cryo-EM structure

B1: Escherichia coli glutamate kinase (enzyme, UniProt P0A7B5 1-367, looked up)
chain: MSDSQTLVVKLGTSVLTGGSRRLNRAHIVELVRQCAQLHAAGHRIVIVTSGAIAAGREHLGYPELPATIASKQLLAAVGQSRLIQLWEQLFSIYGIHVGQMLLTRADMEDRERFLNARDTLRALLDNNIVPVINENDAVATAEIKVGDNDNLSALAAILAGADKLLLLTDQKGLYTADPRSNPQAELIKDVYGIDDALRAIAGDSVSGLGTGGMSTKLQAADVACRAGIDTIIAAGSKPGVIGDVMEGISVGTLFHAQATPLENRKRWIFGAPPAGEITVDEGATAAILERGSSLLPKGIKSVTGNFSRGEVIRICNLEGRDIAHGVSRYNSDALRRIAGHHSQEIDAILGYEYGPVAVHRDDMITR
stoichiometry N: 4
